Assay results taken from PMC8745191.
Changes are numbered by the printed parent chain.

Columns and labels:
Settings in all cases: LightShift Chemiluminescent EMSA kit, manufacturer's protocol; binding buffer, pH and temperature not stated; protein eluted in 20 mM Tris-HCl pH 8.0, 500 mM …
[1] = molecular target: T1, His-STOP1 (Arabidopsis thaliana) (UniProt Q9C8N5); test: EMSA
T1 sequence: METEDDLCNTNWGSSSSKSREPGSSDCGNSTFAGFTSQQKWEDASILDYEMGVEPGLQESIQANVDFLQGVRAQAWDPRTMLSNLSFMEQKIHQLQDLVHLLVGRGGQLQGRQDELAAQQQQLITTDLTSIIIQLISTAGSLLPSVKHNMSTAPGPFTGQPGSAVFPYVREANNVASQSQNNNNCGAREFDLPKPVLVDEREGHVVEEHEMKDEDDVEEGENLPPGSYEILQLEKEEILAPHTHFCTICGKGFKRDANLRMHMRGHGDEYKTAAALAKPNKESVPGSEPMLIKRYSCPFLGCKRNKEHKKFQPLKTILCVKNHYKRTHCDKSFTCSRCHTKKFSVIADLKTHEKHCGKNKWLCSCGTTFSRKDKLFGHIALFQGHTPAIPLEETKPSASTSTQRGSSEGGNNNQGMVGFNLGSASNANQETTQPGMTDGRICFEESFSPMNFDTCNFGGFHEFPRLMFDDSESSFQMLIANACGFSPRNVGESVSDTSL

[2] = molecular target: T2, His-STOP1 H266Y H266Y (Arabidopsis thaliana (stop1-1 allele)) (UniProt Q9C8N5); test: EMSA
T2 sequence: T1 sequence with H266Y

[3] = molecular target: T1, His-STOP1 (Arabidopsis thaliana); test: competition

Sequence | binding [1] | binding [2] | binding [3]
TTGCATTTAAATTATCAAAGACTAAGATAAGCCTAGAATAATTTAAAATGTAAACTATAGTATACGTCAGAACCTACAGATACAACCTTCCTCGTATAATCCCTAAACAGAATTTTAATT (double strand) [P3 (F2-2) LKS1 promoter probe] | binds | no binding | –
TTGCATTTAAATTATCAAAGACTAAGATAAGCCTAGAATAATTTAAAATGTAAACTATAGTATACGTCAGAACCTACAGATACAACCTTCCTCGTATAATCCCTAAACAGAATTTTAATT (double strand) [P3 unlabeled competitor (cold probe)] | – | – | binds
